Results published in patent US11499162B2, “Plants having increased tolerance to herbicides” (BASF SE, priority 2016, dated 2022).
Where a chain is given by its changes, count along the chain named. Numbers in names are those of the source.

B1: L88VL92I: mutated TriA variant of SEQ ID NO: 2 (protein)
chain: MQTLSIQHGTLVTMDQYRRVLGDSWVHVQDGRIVALGVHAESVPPPADRVIDARGKVVLPGFINAHTHVNQILLRGGPSHGRQLYDWVFNVIYPGQKAMRPEDVAVAVRLYCAEAVRSGITTINDNADSAIYPGNIEAAMAVYGEVGVRVVYARMFFDRMDGRIQGYVDALKARSPQVELCSIMEETAVAKDRITALSDQYHGTAGGRISVWPAPAITPAVTVEGMRWAQAFARDRAVMWTLHMAESDHDERLHWMSPAEYMECYGLLDERLQVAHCVYFDRKDVRLLHRHNVKVASQVVSNAYLGSGVAPVPEMVERGMAVGIGTDDGNCNDSVNMIGDMKFMAHIHRAVHRDADVLTPEKILEMATIDGARSLGMDHEIGSIETGKRADLILLDLRHPQTTPHHHLAATIVFQAYGNEVDTVLIDGNVVMENRRLSFLPPERELAFLEEAQSRATAILQRANMVANPAWRSL
modifications: Pseudomonas
B2: L88VL92V: mutated TriA variant of SEQ ID NO: 2 (protein)
chain: B1 chain with I92V
modifications: Pseudomonas
B3: L88VL92IF157V: mutated TriA variant of SEQ ID NO: 2 (protein)
chain: B1 chain with F157V
modifications: Pseudomonas
B4: L88VL92VF157A: mutated TriA variant of SEQ ID NO: 2 (protein)
chain: B1 chain with I92V, F157A
modifications: Pseudomonas
B5: Q96V: mutated TriA variant of SEQ ID NO: 2 (protein)
chain: B1 chain with V88L, I92L, Q96V
modifications: Pseudomonas
B6: N70VQ71L92VM155AF157A: mutated TriA variant of SEQ ID NO: 2 (protein)
chain: B1 chain with N70V, Q71L, V88L, I92V, M155A, F157A
modifications: Pseudomonas
B7: N70IQ71L92VM155AF157A: mutated TriA variant of SEQ ID NO: 2 (protein)
chain: B1 chain with N70I, Q71L, V88L, I92V, M155A, F157A
modifications: Pseudomonas
B8: N70LQ71ID128IM155V: mutated TriA variant of SEQ ID NO: 2 (protein)
chain: B1 chain with N70L, Q71I, V88L, I92L, D128I, M155V
modifications: Pseudomonas
B9: N70LQ71ID128IM155VF157L: mutated TriA variant of SEQ ID NO: 2 (protein)
chain: B1 chain with N70L, Q71I, V88L, I92L, D128I, M155V, F157L
modifications: Pseudomonas
B10: Q71LV91A: mutated TriA variant of SEQ ID NO: 2 (protein)
chain: B1 chain with Q71L, V88L, V91A, I92L
modifications: Pseudomonas
B11: Q71LV91AL92V: mutated TriA variant of SEQ ID NO: 2 (protein)
chain: B1 chain with Q71L, V88L, V91A, I92V
modifications: Pseudomonas
B12: Q71LL88AV91AL92V: mutated TriA variant of SEQ ID NO: 2 (protein)
chain: B1 chain with Q71L, V88A, V91A, I92V
modifications: Pseudomonas
B13: Q71LL88AV91AL92VF157L: mutated TriA variant of SEQ ID NO: 2 (protein)
chain: B1 chain with Q71L, V88A, V91A, I92V, F157L
modifications: Pseudomonas
B14: L88AF157I: mutated TriA variant of SEQ ID NO: 2 (protein)
chain: B1 chain with V88A, I92L, F157I
modifications: Pseudomonas
B15: L88AF157L: mutated TriA variant of SEQ ID NO: 2 (protein)
chain: B1 chain with V88A, I92L, F157L
modifications: Pseudomonas
B16: V69A: mutated TriA variant of SEQ ID NO: 2 (protein)
chain: B1 chain with V69A, V88L, I92L
modifications: Pseudomonas
B17: V69L: mutated TriA variant of SEQ ID NO: 2 (protein)
chain: B1 chain with V69L, V88L, I92L
modifications: Pseudomonas
B18: V69S: mutated TriA variant of SEQ ID NO: 2 (protein)
chain: B1 chain with V69S, V88L, I92L
modifications: Pseudomonas
B19: L74V: mutated TriA variant of SEQ ID NO: 2 (protein)
chain: B1 chain with L74V, V88L, I92L
modifications: Pseudomonas
B20: L74A: mutated TriA variant of SEQ ID NO: 2 (protein)
chain: B1 chain with L74A, V88L, I92L
modifications: Pseudomonas
B21: N70LQ71IL74A: mutated TriA variant of SEQ ID NO: 2 (protein)
chain: B1 chain with N70L, Q71I, L74A, V88L, I92L
modifications: Pseudomonas
B22: R82L: mutated TriA variant of SEQ ID NO: 2 (protein)
chain: B1 chain with R82L, V88L, I92L
modifications: Pseudomonas
B23: R82M: mutated TriA variant of SEQ ID NO: 2 (protein)
chain: B1 chain with R82M, V88L, I92L
modifications: Pseudomonas
B24: R82G: mutated TriA variant of SEQ ID NO: 2 (protein)
chain: B1 chain with R82G, V88L, I92L
modifications: Pseudomonas
B25: Q96E: mutated TriA variant of SEQ ID NO: 2 (protein)
chain: B1 chain with V88L, I92L, Q96E
modifications: Pseudomonas
B26: Q96D: mutated TriA variant of SEQ ID NO: 2 (protein)
chain: B1 chain with V88L, I92L, Q96D
modifications: Pseudomonas
B27: Q96A: mutated TriA variant of SEQ ID NO: 2 (protein)
chain: B1 chain with V88L, I92L, Q96A
modifications: Pseudomonas
B28: Q96N: mutated TriA variant of SEQ ID NO: 2 (protein)
chain: B1 chain with V88L, I92L, Q96N
modifications: Pseudomonas
B29: N126A: mutated TriA variant of SEQ ID NO: 2 (protein)
chain: B1 chain with V88L, I92L, N126A
modifications: Pseudomonas

Assay type: biochemical
Conditions: pH 7.2
Method in brief: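 TriA variants, N-His-tagged, were expressed in E. coli BL21(DE3) Gold with groEL/groES chaperones and purified by Ni-IDA affinity. Enzyme in 25 mM sodium phosphate pH 7.2 was incubated with azine substrates at 1 nM to 10 nM, 30° C. Products were identified by UPLC-HR-MS.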

Row | Molecule | Degradation in % of 6-cyclopentyl-N4-(2,3,4,5,6-pentafluorophenyl)-1,3,5-triazine-2,4-diamine | Degradation in % of Melamine
1 | B1 | 0% | 8%
2 | B2 | 0% | 0%
3 | B3 | 0% | 5%
4 | B4 | 0% | 0%
5 | B5 | 0% | 4%
6 | B6 | 1% | 0%
7 | B7 | 1% | 0%
8 | B8 | 0% | 9%
9 | B9 | 0% | 3%
10 | B10 | 0% | 0%
11 | B11 | 3% | 7%
12 | B12 | 1% | 0%
13 | B13 | 1% | 4%
14 | B14 | 0% | 0%
15 | B15 | 0% | 2%
16 | B16 | 0% | 5%
17 | B17 | 0% | 0%
18 | B18 | 3% | 5%
19 | B19 | 0% | 3%
20 | B20 | 1% | 0%
21 | B21 | 0% | 2%
22 | B22 | 1% | 1%
23 | B23 | 2% | 2%
24 | B24 | 0% | 0%
25 | B25 | 0% | 0%
26 | B26 | 4% | 0%
27 | B27 | 0% | 0%
28 | B28 | 2% | 2%
29 | B29 | 4% | 2%
